B1: DH270 UCA with the improbable G57R mutation (antibody, V domains shown)
VH: not shown
VL: QSALTQPASVSGSPGQSITISCTGTSSDVGSYNLVSWYQQHPGKAPKLMIYEVSKRPSGVSNRFSGSKSGNTASLTISGLQAEDEADYYCCSYAGSSTVIFGGGTKLTVL
B2: DH270 UCA (antibody, format not stated in the text) (antibody, V domains shown)
VH: not shown
VL: B1 VL

Molecular target: CH848 10.17DT stabilized SOSIP gp140 Env trimer (HIV-1)
Experiment: SPR

Binder	Kd
B1	132 nM
B2	558 nM

— paper PMC7168753 (Science (New York, N.Y.), 2019)
